Experimental data as given in US20090325867A1, “RECEPTOR-SPECIFIC TUMOUR NECROSIS FACTOR-RELATED APOPTOSIS-INDUCING LIGAND (TRAIL) VARIANTS” (MEDICAL RESEARCH COUNCIL, priority 2005, published 2009).
“Also recorded” adds a separate entry of the source.

B1: TRAIL.R1-5: 6His TRAIL 95-281 with 193Ser, 199Val, 201Arg, 213Trp and 215Asp (protein)
chain: TSEETISTVQEKQQNISPLVRERGPQRVAAHITGTRGRSNTLSSPNSKNEKALGRKINSWESSRSGHSFLSNLHLRNGELVIHEKGFYYIYSQTYFRFSEEIKEVTRNDKQMVQYIYKWTDYPDPILLMKSARNSCWSKDAEYGLYSIYQGGIFELKENDRIFVSVTNEHLIDMDHEASFFGAFLVG
modifications: biotin (site not stated) in the DISC analysis only; not biotinylated in the apoptosis assays
notes: 6His TRAIL 95-281 with 193Ser, 199Val, 201Arg, 213Trp and 215Asp
B2: HGS-ETR2 (antibody, INN chains, looked up, V domains shown)
VH: EVQLVQSGGGVERPGGSLRLSCAASGFTFDDYGMSWVRQAPGKGLEWVSGINWNGGSTGYADSVKGRVTISRDNAKNSLYLQMNSLRAEDTAVYYCAKILGAGRGWYFDLWGKGTTVTVSS
VL: SSELTQDPAVSVALGQTVRITCQGDSLRSYYASWYQQKPGQAPVLVIYGKNNRPSGIPDRFSGSSSGNTASLTITGAQAEDEADYYCNSRDSSGNHVVFGGGTKLTVL

Assays:
Jurkat cells [1] = experiment: Apoptosis by phosphatidylserine (PS) externalization in Jurkat cells; format: cell-based; conditions: for inhibition of induced apoptosis by TRAIL-R1 blocking Ab: 30 min pre-incubation with Ab (5 μg ml^−1); for ability to induce apoptosis in Jurkat cells (in words): PS externalization, compared with wt TRAIL
Method: Cells were also exposed to HGS-ETR1 or HGSETR2 (1 μg ml^−1). C: Ramos or Jurkat cells were pre-incubated for 30 min either alone or with TRAIL-R1 blocking Ab or TRAIL-R2 neutralizing Ab (5 μg ml^−1). […] D: Ramos and Jurkat cells were exposed to wt TRAIL or TRAIL mutants as described above and processing of caspase-3 and -8 determined by Western blot analysis. The asterisk indicates a non-specific band. The lower panel of the blot for detection of the caspase-8 p18 subunit was exposed for twice as long as the upper panel. Apoptosis was assessed by phosphatidylserine externalization and results expressed as the Means±SEM of at least 3 separate determinations. […]
(§1) Apoptosis was quantified by phosphatidylserine (PS) externalization in the presence of propidium iodide as described (MacFarlane et al., 2002 ibid.). Samples for Western blot analysis were prepared and caspase processing detected as described (Inoue et al., 2004 ibid.; MacFarlane et al., 2005 ibid.).
Ramos and Jurkat T cells (clone E6-1) were cultured as described (MacFarlane et al, 2005 ibid.). The breast tumour cell line, MCF-7 (clone F43) was cultured as described previously (MacFarlane et al., 2000 J. Cell Biol. 148, 1239-1254). Cells were cultured for either 4 h (Ramos and Jurkat) or 6 h (MCF-7) with His-TRAIL (MacFarlane et al, 1997 J Biol Chem 272, 25417-25420), HGS-ETR1 or HGS-ETR2 (Human Genome Sciences), or a mutant form of His-TRAIL (MacFarlane et al, 2005 ibid.). Samples were analyzed for apoptosis, Western blotting, or TRAIL DISC activation as described (MacFarlane et al, 2005 ibid.; MacFarlane et al. 2002 Oncogene 21, 6809-6818). Mutants of His-TRAIL (residues 95-281) were generated using the Quik-Change site-directed mutagenesis kit (Stratagene, Calif.), confirmed by DNA sequencing, expressed in E. coli and purified as described (MacFarlane et al, 1997 ibid.). For siRNA targeting of TRAIL-R1/-R2, MCF-7 cells were seeded into six-well plates immediately prior to effectene-mediated RNAi transfection with either a negative control siRNA (30 nM, Ambion, #4611), or preannealed siRNA oligonucleotides for TRAIL-R1 or TRAIL-R2 (30 nM, Ambion), with the sequence and validity described (Ren et al, 2004 Mol. Biol. Cell vol 15 pp 5064-5074). After 40 h of transfection the cells were collected and total TRAIL-R1 or TRAIL-R2 levels assessed. Where indicated, RNAi transfected MCF-7 cells were either left untreated or exposed to wt-TRAIL and apoptosis assessed by the extent of Bax activation, determined using the conformation specific Bax MAb, clone 3 (Dewson et al, 2003 Oncogene vol 22 pp 2643-54).

primary CLL cells = experiment: Apoptosis in freshly isolated CLL cells after depsipeptide; format: cell-based, human; conditions: depsipeptide 10 nM 16 h, then 6 h ligand or antibody, FIG. 2C
Method: After exposure of the cells for 30 min, DISC complexes were isolated and analyzed for the indicated proteins by Western blotting. To provide an unstimulated receptor control (u/s), biotinylated wt or mutant TRAIL was added to lysate from untreated cells. C: Freshly isolated cells from patients with CLL were incubated for 16 h either alone or in the presence of depsipeptide (10 nM). […] The different symbols used indicate data from six individual patients and the solid line indicates the Mean.
Ramos, an Epstein-Barr virus-negative Burkitt's lymphoma cell line, and Jurkat T cells (clone E6-1) were cultured as described (MacFarlane et al (2005 Cell Death and Differentiation vol 12 pages 773-782)). Blood samples were obtained from CLL patients, with patient consent and local ethical committee approval and CLL cells purified as described (MacFarlane et al (2002 Oncogene 21, 6809-6818). Cells were incubated for 16 h with depsipeptide (10 nM), provided by Dr. E. Sausville (NCI, USA). Cells were then cultured for a further 6 h with either HGSETR1 or HGS-ETR2, agonistic mAbs to TRAIL-R1 or -R2, respectively (Human Genome Sciences, Rockville, Md.), His-TRAIL-LE (a recombinant TRAIL with low endotoxin—Alexis Corporation, Nottingham, UK), His-TRAIL, a similar form of human recombinant TRAIL (MacFarlane et al (1997 J Biol Chem 272, 25417-25420)) but not further purified to reduce endotoxin levels or a mutant form of His-TRAIL as described (MacFarlane et al., 2005 ibid.). Cell lines were also pre-incubated for 30 min with a TRAIL-R1 blocking Ab and a TRAIL-R2 neutralizing Ab from Alexis and R&D systems, respectively, prior to exposure to TRAIL. Freshly isolated cells from patients with MCL were isolated, purified and incubated with different forms of TRAIL as described above for CLL cells. Samples were either analyzed immediately for apoptosis or stored at −80° C. for subsequent Western blotting. Other methods and reagents were as described (Inoue (2004 Cell Death Differ 11 Suppl 2, S193-206); MacFarlane et al., 2005 ibid).
as §1

Jurkat cells [2] = experiment: Caspase-8 and -3 processing by Western blot in Jurkat cells; format: cell-based; conditions: FIG. 1D
Method: Cells were also exposed to HGS-ETR1 or HGSETR2 (1 μg ml^−1). C: Ramos or Jurkat cells were pre-incubated for 30 min either alone or with TRAIL-R1 blocking Ab or TRAIL-R2 neutralizing Ab (5 μg ml^−1). […] D: Ramos and Jurkat cells were exposed to wt TRAIL or TRAIL mutants as described above and processing of caspase-3 and -8 determined by Western blot analysis. The asterisk indicates a non-specific band. The lower panel of the blot for detection of the caspase-8 p18 subunit was exposed for twice as long as the upper panel. Apoptosis was assessed by phosphatidylserine externalization and results expressed as the Means±SEM of at least 3 separate determinations.
as §1
To confirm that the mutants were inducing apoptosis, we examined their effects on the processing of caspase-8, the apical caspase in death receptor-induced apoptosis and caspase-3, an effector caspase.

Molecule | inhibition of induced apoptosis by TRAIL-R1 blocking Ab (Jurkat cells [1]) | concentration-response of apoptosis compared with wt TRAIL (Jurkat cells [1]; 4 h, FIG. 1A) | % PS+ cells, Jurkat (Jurkat cells [1]; 4 h exposure, 500 ng ml^−, Mean ± SEM of at least three determinations) [%] | ability to induce apoptosis in Jurkat cells (in words) (Jurkat cells [1]) | sensitization of CLL cells to induced apoptosis by depsipeptide (primary CLL cells) | processing of caspases-8 and -3 (Jurkat cells [2])
B1 | blocked | much less active than wt TRAIL | 20.0 ± 2.3 | lost much of its activity; also recorded: low levels of apoptosis | sensitized CLL cells | small amount of caspase processing
B2 | not | – | – | potently induced apoptosis | not | most potent
